Measurements published in IntAct's records for PubMed 26751287.

B1: Transmembrane glycoprotein NMB (Homo sapiens), Q14956-1 (parent)
chain: MECLYYFLGFLLLAARLPLDAAKRFHDVLGNERPSAYMREHNQLNGWSSDENDWNEKLYPVWKRGDMRWKNSWKGGRVQAVLTSDSPALVGSNITFAVNLIFPRCQKEDANGNIVYEKNCRNEAGLSADPYVYNWTAWSEDSDGENGTGQSHHNVFPDGKPFPHHPGWRRWNFIYVFHTLGQYFQKLGRCSVRVSVNTANVTLGPQLMEVTVYRRHGRAYVPIAQVKDVYVVTDQIPVFVTMFQKNDRNSSDETFLKDLPIMFDVLIHDPSHFLNYSTINYKWSFGDNTGLFVSTNHTVNHTYVLNGTFSLNLTVKAAAPGPCPPPPPPPRPSKPTPSLATTLKSYDSNTPGPAGDNPLELSRIPDENCQINRYGHFQATITIVEGILEVNIIQMTDVLMPVPWPESSLIDFVVTCQGSIPTEVCTIISDPTCEITQNTVCSPVDVDEMCLLTVRRTFNGSGTYCVNLTLGDDTSLALTSTLISVPDRDPASPLRMANSALISVGCLAIFVTVISLLVYKKHKEYNPIENSPGNVVRSKGLSVFLNRAKAVFFPGNQEKDPLLKNQEFKGVS

Variants of: B1
Conditions: with ptk6_human PTK6, Q13882

| effect of a mutation on the interaction | Variant |
| --- | --- |
| disrupting interaction strength | Y525F |
